# Data: the Human Domainome abundance scans (Beltran et al. 2025)
# ± gives the uncertainty stated by the source.
# B1: TOX high mobility group box family member 3, residues 256 to 323; numbered along this chain, O15405 (parent)
# chain: QKPVSAYALFFRDTQAAIKGQNPNATFGEVSKIVASMWDSLGEEQKQVYKRKTEAAKKEYLKALAAYR
# Variants of: B1
# Test: abundance fitness (aPCA) (normalised: wild type 0, dead -1); higher = more abundant; growth selection in yeast, the domain comes from the species named
# Settings: Homo sapiens
row,Variant,abundance fitness
1,D13H,-0.235 ± 0.12
2,D13A,-0.259 ± 0.12
3,D13G,-0.855 ± 0.22
4,F10G,-0.957 ± 0.14
5,F10S,-0.267 ± 0.15
6,F10A,-0.981 ± 0.31
7,F10R,-0.751 ± 0.1
8,F10Q,-0.71 ± 0.19
9,F10D,-0.752 ± 0.23
10,F10W,-0.957 ± 0.2
11,F10L,-0.744 ± 0.1
12,F10I,-0.98 ± 0.34
13,F10Y,0.047 ± 0.12
14,F10E,-0.635 ± 0.12
15,F10P,-0.572 ± 0.28
16,F10K,-0.946 ± 0.17
17,F10N,-0.916 ± 0.45
18,F10T,-0.53 ± 0.11
19,S5A,-0.314 ± 0.066
20,S5N,0.115 ± 0.16
21,S5W,-0.491 ± 0.14
22,S5E,-0.022 ± 0.066
23,S5G,-0.091 ± 0.052
24,S5Q,-0.527 ± 0.28

row,Variant,abundance fitness
1,S5V,-0.693 ± 0.1
2,S5C,-0.074 ± 0.11
3,S5P,-0.458 ± 0.11
4,S5R,-0.348 ± 0.08
5,S5I,-0.94 ± 0.39
6,S5K,-0.166 ± 0.14
7,S5D,0.101 ± 0.074
8,V4I,0.091 ± 0.072
9,V4A,-0.202 ± 0.079
10,V4H,-0.182 ± 0.081
11,V4C,-0.097 ± 0.051
12,V4F,-0.148 ± 0.078
13,V4R,-0.109 ± 0.043
14,V4Q,-0.073 ± 0.058
15,V4E,0.155 ± 0.064
16,V4N,0.02 ± 0.1
17,V4G,-0.005 ± 0.063
18,V4T,-0.073 ± 0.079
19,V4M,0.159 ± 0.082
20,V4P,-0.001 ± 0.077
21,V4S,-0.112 ± 0.057
22,V4W,-0.331 ± 0.063
23,V4Y,-0.24 ± 0.097
24,P3N,-0.163 ± 0.083

row,Variant,abundance fitness
1,P3Q,-0.292 ± 0.096
2,P3H,-0.068 ± 0.059
3,P3M,-0.296 ± 0.096
4,P3R,-0.157 ± 0.053
5,P3Y,-0.332 ± 0.12
6,P3E,-0.199 ± 0.2
7,P3T,-0.142 ± 0.062
8,P3I,-0.228 ± 0.096
9,P3A,-0.213 ± 0.057
10,P3G,0.033 ± 0.049
11,P3F,0.125 ± 0.081
12,P3C,-0.342 ± 0.076
13,P3S,-0.052 ± 0.046
14,P3D,0.375 ± 0.15
15,P3K,-0.035 ± 0.072
16,P3V,-0.14 ± 0.088
17,P3L,-0.145 ± 0.045
18,K2P,-0.267 ± 0.085
19,K2W,-0.781 ± 0.15
20,K2R,-0.273 ± 0.064
21,K2I,-0.003 ± 0.043
22,K2S,0.069 ± 0.05
23,K2F,-0.083 ± 0.13
24,K2D,-0.311 ± 0.14

row,Variant,abundance fitness
1,K2G,-0.344 ± 0.05
2,K2M,-0.335 ± 0.083
3,K2N,-0.005 ± 0.1
4,K2C,-0.434 ± 0.13
5,K2A,-0.264 ± 0.076
6,K2Q,-0.337 ± 0.14
7,K2L,-0.428 ± 0.066
8,K2H,-0.012 ± 0.12
9,K2V,-0.201 ± 0.059
10,K2E,-0.464 ± 0.11
11,K2T,-0.294 ± 0.081
12,F11K,-0.205 ± 0.091
13,F11R,-0.139 ± 0.085
14,F11L,-0.176 ± 0.069
15,F11Q,-0.171 ± 0.14
16,F11Y,-0.278 ± 0.19
17,F11A,-0.19 ± 0.068
18,F11P,-1.17 ± 0.24
19,F11S,-0.264 ± 0.1
20,F11I,-0.676 ± 0.43
21,F11M,-0.101 ± 0.071
22,F11D,-0.746 ± 0.15
23,F11V,-0.14 ± 0.07
24,F11G,-0.915 ± 0.17

row,Variant,abundance fitness
1,F11W,-0.134 ± 0.088
2,F11N,-0.19 ± 0.13
3,F11C,-0.302 ± 0.13
4,Q15G,-0.6 ± 0.12
5,Q15P,-1.08 ± 0.19
6,Q15N,-0.212 ± 0.3
7,Q15S,-0.538 ± 0.18
8,Q15E,-0.065 ± 0.066
9,Q15A,-0.512 ± 0.15
10,Q15K,-0.109 ± 0.091
11,Q15F,0.022 ± 0.086
12,Q15V,-0.173 ± 0.057
13,Q15R,-0.309 ± 0.072
14,Q15C,-0.178 ± 0.2
15,Q15I,0.027 ± 0.27
16,Q15H,-0.084 ± 0.14
17,Q15M,-0.068 ± 0.078
18,Q15L,-0.13 ± 0.084
19,T14Q,0.146 ± 0.096
20,T14V,-0.147 ± 0.062
21,T14D,-0.704 ± 0.17
22,T14E,-0.292 ± 0.057
23,T14W,-0.364 ± 0.067
24,T14S,0.087 ± 0.077

row,Variant,abundance fitness
1,T14H,-0.453 ± 0.34
2,T14I,-0.326 ± 0.12
3,T14N,-0.278 ± 0.14
4,T14M,0.048 ± 0.084
5,T14F,-0.99 ± 0.34
6,T14G,-0.709 ± 0.11
7,T14C,-0.781 ± 0.29
8,T14L,-0.314 ± 0.064
9,T14A,-0.29 ± 0.11
10,T14K,0.066 ± 0.077
11,T14P,-0.62 ± 0.12
12,T14R,-0.03 ± 0.065
13,A8M,0.219 ± 0.056
14,A8D,0.039 ± 0.15
15,A8W,-0.252 ± 0.098
16,A8L,-0.235 ± 0.065
17,A8V,-0.123 ± 0.056
18,A8S,0.002 ± 0.065
19,A8K,0.009 ± 0.074
20,A8F,-0.33 ± 0.18
21,A8H,0.136 ± 0.17
22,A8C,0.163 ± 0.097
23,A8Y,-0.458 ± 0.24
24,A8I,-0.477 ± 0.19

row,Variant,abundance fitness
1,A8E,-0.376 ± 0.18
2,A8G,-0.179 ± 0.17
3,A8R,-0.027 ± 0.044
4,A8P,-0.464 ± 0.12
5,A8Q,0.09 ± 0.081
6,A8T,-0.196 ± 0.11
7,R12E,0.054 ± 0.1
8,R12V,-0.433 ± 0.1
9,R12Y,-0.135 ± 0.19
10,R12K,0.022 ± 0.12
11,R12P,-1 ± 0.23
12,R12I,-0.221 ± 0.11
13,R12C,-0.457 ± 0.16
14,R12T,-0.146 ± 0.11
15,R12D,-0.526 ± 0.23
16,R12G,-0.223 ± 0.067
17,R12W,-0.587 ± 0.12
18,R12N,0.168 ± 0.093
19,R12S,-0.113 ± 0.064
20,R12M,-0.052 ± 0.063
21,R12H,0.062 ± 0.15
22,R12A,-0.116 ± 0.078
23,R12Q,-0.057 ± 0.094
